Results published in publication PMC6546705.

Biological target: recombinant MnSOD-WT (manganese superoxide dismutase, wild type) (UniProt P04179)
Experiment: SEC; Superdex 200 Increase 10/300 GL, 50 mM potassium phosphate pH 7.8; size from a calibration curve of gel filtration standards

Substance: recombinant MnSOD-WT (manganese superoxide dismutase, wild type) (from UniProt P04179 25-222) (enzyme)
- stoichiometry N: 4
